Consider 6 molecules from US20140212423A1 (AbbVie / Abbott, published 2014).

In test [1] the target is T1, mouse Transferrin Receptor overexpressed on Hek 293 cells (mouse, UniProt Q62351 1-763).
T1 construct: whole, on cells; also called Hek293/mTfR; 293/mTFR
In words: cell-based MSD-ECL binding on Hek293 cells overexpressing mouse TfR. The method, then: (§1) Meso-scale Discovery (MSD) Electrochemiluminescesnce (ECL) assays to screen for antibodies or DVDs that bind a desired target antigen expressed on the cell surface were performed as follows: Hek 293 cells overexpressing mouse Transferin Receptor were added onto MSD 96-well plates (MSD Cat# L11 XB-3, lot#2290-EA) which were blocked using blocking buffer (30% FBS Serum (Hyclone) in PBS) at 37° C. for 1 hr. After incubating at RT for 30 min with mild agitation, plates were washed with DPBS 3 times and Abs/DVDs (10,000 ng/ml) were added. After incubating for 1 hr at RT, plates were washed 3 times with DPBS and 25 ul of Goat anti human Sulfo TAG (MSD Cat# R32AC-, Lot# W001162) at 1 μg/ml is added. Following a 1 h incubation at RT for 1 hr, plates are washed and MSD read buffer is added before reading on MSD SECTOR Imager 6000. EC50 values are obtained using Xlfit4 software package

In test [2] the target is T1, mouse Transferrin Receptor …. In words: MSD-ECL assay, column headed IC50 (values match the cell-based mTfR binding EC50 of Table 7).
Test [3] concerns the target T2, rmTfR (119-763) (mouse, UniProt Q62351 119-763).
T2 construct: range 119-763; also called recombinant mouse transferrin receptor 119-763
In words: Biacore SPR, antibody captured via anti-human Fc, rmTfR (119-763) in solution. The method, then:
The BIACORE assay (Biacore, Inc, Piscataway, N.J.) was used to determine the affinity of antibodies or DVD-Ig™ with kinetic measurements of on-rate and off-rate constants. Binding of antibodies or DVD-Ig™ to a target antigen (for example, a purified recombinant target antigen) was determined by surface plasmon resonance-based measurements with a Biacore® 1000 or 3000 instrument (Biacore® AB, Uppsala, Sweden) using running HBS-EP (10 mM HEPES [pH 7.4], 150 mM NaCl, 3 mM EDTA, and 0.005% surfactant P20) at 25° C. All chemicals were obtained from Biacore® AB (Uppsala, Sweden) or otherwise from a different source as described in the text. For example, approximately 5000 RU of goat anti-human IgG, (Fcγ), fragment specific polyclonal antibody (Pierce Biotechnology Inc, Rockford, Ill.) diluted in 10 mM sodium acetate (pH 4.5) was directly immobilized across a CM5 research grade biosensor chip using a standard amine coupling kit according to manufacturer's instructions and procedures at 25 μg/ml. Unreacted moieties on the biosensor surface are blocked with ethanolamine. Modified carboxymethyl dextran surface in flowcell 2 and 4 is used as a reaction surface. Unmodified carboxymethyl dextran without goat anti-human IgG in flow cell 1 and 3 is used as the reference surface. For kinetic analysis, rate equations derived from the 1:1 Langmuir binding model were fitted simultaneously to association and dissociation phases of all eight injections (using global fit analysis) with the use of Biaevaluation 4.0.1 software. Purified antibodies or DVD-Ig™ were diluted in HEPES-buffered saline for capture across goat anti-human IgG specific reaction surfaces. […] The association and dissociation rate constants, kon (M⁻¹s⁻¹) and koff (s⁻¹) are determined under a continuous flow rate of 25 μl/min. […] The equilibrium dissociation constant (M) of the reaction between antibodies or DVD-Ig™s and the target antigen is then calculated from the kinetic rate constants by the following formula: KD=koff/kon. Binding is recorded as a function of time and kinetic rate constants are calculated.

Test [4] addresses T1, mouse Transferrin Receptor …. As to the kind of experiment: TfR binding EC50 column of Table 8 (cell-based assay; repeats Table 7). The protocol: as §1
For test [5] the target is unchanged. As to the kind of experiment: mTFR binding cell-based assay. The protocol: as §1
Test [6] deals with T3, rmTfR (123-763) (mouse, UniProt Q62351 123-763).
T3 construct: range 123-763; also called recombinant mouse transferrin receptor 123-763
In words: Biacore SPR, antibody captured via anti-human Fc, rmTfR (123-763) in solution. The protocol: The BIACORE assay (Biacore, Inc, Piscataway, N.J.) was used to determine the affinity of antibodies or DVD-Ig™ with kinetic measurements of on-rate and off-rate constants. Binding of antibodies or DVD-Ig™ to a target antigen (for example, a purified recombinant target antigen) was determined by surface plasmon resonance-based measurements with a Biacore® 1000 or 3000 instrument (Biacore® AB, Uppsala, Sweden) using running HBS-EP (10 mM HEPES [pH 7.4], 150 mM NaCl, 3 mM EDTA, and 0.005% surfactant P20) at 25° C. All chemicals were obtained from Biacore® AB (Uppsala, Sweden) or otherwise from a different source as described in the text. For example, approximately 5000 RU of goat anti-human IgG, (Fcγ), fragment specific polyclonal antibody (Pierce Biotechnology Inc, Rockford, Ill.) diluted in 10 mM sodium acetate (pH 4.5) was directly immobilized across a CM5 research grade biosensor chip using a standard amine coupling kit according to manufacturer's instructions and procedures at 25 μg/ml. Unreacted moieties on the biosensor surface are blocked with ethanolamine. Modified carboxymethyl dextran surface in flowcell 2 and 4 is used as a reaction surface. Unmodified carboxymethyl dextran without goat anti-human IgG in flow cell 1 and 3 is used as the reference surface. For kinetic analysis, rate equations derived from the 1:1 Langmuir binding model were fitted simultaneously to association and dissociation phases of all eight injections (using global fit analysis) with the use of Biaevaluation 4.0.1 software. Purified antibodies or DVD-Ig™ were diluted in HEPES-buffered saline for capture across goat anti-human IgG specific reaction surfaces. Antibodies or DVD-Ig™ to be captured as a ligand (25 μg/ml) were injected over reaction matrices at a flow rate of 5 μl/min. The association and dissociation rate constants, kon (M⁻¹s⁻¹) and koff (s⁻¹) are determined under a continuous flow rate of 25 μl/min. Rate constants are derived by making kinetic binding measurements at different antigen concentrations ranging from 10-200 nM. The equilibrium dissociation constant (M) of the reaction between antibodies or DVD-Ig™s and the target antigen is then calculated from the kinetic rate constants by the following formula: KD=koff/kon. Binding is recorded as a function of time and kinetic rate constants are calculated.

T2 sequence (Q62351 119-763): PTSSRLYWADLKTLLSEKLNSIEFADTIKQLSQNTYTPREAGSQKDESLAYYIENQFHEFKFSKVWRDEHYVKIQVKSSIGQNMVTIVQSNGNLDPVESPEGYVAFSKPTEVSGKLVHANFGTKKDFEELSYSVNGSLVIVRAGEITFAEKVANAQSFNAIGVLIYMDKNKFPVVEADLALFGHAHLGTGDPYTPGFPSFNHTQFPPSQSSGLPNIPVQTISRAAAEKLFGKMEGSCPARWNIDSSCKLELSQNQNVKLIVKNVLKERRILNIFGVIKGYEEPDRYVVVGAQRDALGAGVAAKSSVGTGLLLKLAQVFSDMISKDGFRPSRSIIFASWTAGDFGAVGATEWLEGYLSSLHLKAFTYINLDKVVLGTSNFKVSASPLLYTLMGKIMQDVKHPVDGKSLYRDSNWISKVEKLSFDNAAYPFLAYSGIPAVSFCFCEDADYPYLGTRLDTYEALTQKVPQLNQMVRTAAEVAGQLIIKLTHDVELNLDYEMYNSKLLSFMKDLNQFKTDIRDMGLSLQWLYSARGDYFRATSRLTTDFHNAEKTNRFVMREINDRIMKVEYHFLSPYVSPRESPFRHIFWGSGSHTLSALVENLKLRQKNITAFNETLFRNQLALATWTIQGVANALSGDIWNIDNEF
T1 sequence (Q62351 whole entry): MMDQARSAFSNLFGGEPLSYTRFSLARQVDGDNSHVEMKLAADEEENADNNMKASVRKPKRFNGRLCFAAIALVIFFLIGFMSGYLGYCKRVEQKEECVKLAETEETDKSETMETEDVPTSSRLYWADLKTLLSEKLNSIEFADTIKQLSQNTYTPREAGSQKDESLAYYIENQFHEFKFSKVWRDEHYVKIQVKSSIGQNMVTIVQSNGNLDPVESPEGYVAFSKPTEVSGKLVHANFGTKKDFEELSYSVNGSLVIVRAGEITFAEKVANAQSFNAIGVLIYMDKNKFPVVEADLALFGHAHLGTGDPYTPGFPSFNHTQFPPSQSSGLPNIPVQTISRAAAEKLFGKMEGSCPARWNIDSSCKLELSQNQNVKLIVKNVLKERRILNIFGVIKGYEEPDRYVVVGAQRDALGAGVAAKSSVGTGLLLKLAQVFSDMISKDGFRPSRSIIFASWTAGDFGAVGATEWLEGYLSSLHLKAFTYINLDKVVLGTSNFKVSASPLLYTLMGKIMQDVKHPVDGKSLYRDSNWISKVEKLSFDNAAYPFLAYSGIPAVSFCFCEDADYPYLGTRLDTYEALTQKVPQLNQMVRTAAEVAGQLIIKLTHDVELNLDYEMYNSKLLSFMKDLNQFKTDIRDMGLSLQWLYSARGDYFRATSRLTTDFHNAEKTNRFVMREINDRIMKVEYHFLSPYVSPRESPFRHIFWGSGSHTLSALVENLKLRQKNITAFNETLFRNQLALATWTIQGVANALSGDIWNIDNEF
T3 sequence (Q62351 123-763): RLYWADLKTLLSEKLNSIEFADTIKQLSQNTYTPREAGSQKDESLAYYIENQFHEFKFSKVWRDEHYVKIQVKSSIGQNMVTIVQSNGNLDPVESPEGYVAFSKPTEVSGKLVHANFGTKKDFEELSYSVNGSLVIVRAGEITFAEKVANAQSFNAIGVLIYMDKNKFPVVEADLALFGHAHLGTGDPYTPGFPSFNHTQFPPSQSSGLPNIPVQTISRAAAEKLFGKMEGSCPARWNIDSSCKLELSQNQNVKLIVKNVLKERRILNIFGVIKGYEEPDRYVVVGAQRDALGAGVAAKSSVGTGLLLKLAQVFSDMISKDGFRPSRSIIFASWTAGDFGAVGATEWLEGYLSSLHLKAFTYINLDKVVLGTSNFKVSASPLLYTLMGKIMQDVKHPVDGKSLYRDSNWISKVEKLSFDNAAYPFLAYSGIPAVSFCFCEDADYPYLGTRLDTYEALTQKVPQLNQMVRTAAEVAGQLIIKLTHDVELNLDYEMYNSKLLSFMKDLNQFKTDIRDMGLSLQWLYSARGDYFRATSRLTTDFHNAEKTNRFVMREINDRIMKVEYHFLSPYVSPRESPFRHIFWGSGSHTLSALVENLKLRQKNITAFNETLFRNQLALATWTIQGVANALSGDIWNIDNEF

B1: DVD2671 (bispecific antibody)
VH: EVQLLESGGGLVQPGGSLRLSCAASGFTFSNYGMSWVRQAPGKGLEWVASIRSGGGRTYYSDNVKGRFTISRDNSKNTLYLQMNSLRAEDTAVYYCVRYDHYSGSSDYWGQGTLVTVSSASTKGPSVFPLAPEVQLVESGGGLVQPGNSLTLSCVASGFTFSNYGMHWIRQAPKKGLEWIAMIYYDSSKMNYADTVKGRFTISRDNSKNTLYLEMNSLRSEDTAMYYCAVPTSHYVVDVWGQGVSVTVSS
VL: DVVMTQSPLSLPVTPGEPASISCKSSQSLLDSDGKTYLNWLLQKPGQSPQRLIYLVSKLDSGVPDRFSGSGSGTDFTLKISRVEAEDVGVYYCWQGTHFPRTFGQGTKVEIKRTVAAPDIQMTQSPASLSASLEEIVTITCQASQDIGNWLAWYQQKPGKSPQLLIYGATSLADGVPSRFSGSRSGTQFSLKISRVQVEDIGIYYCLQAYNTPWTFGGGTKLELK
notes: DVD-Ig; also called AbetaLSTfR DVD2671
For B1, in test [1], the EC50 (in general, the concentration needed to bring the measured effect to its halfway point) was determined as 1.2 nM. Moreover, the IC50 – broadly, the concentration that gives 50% inhibition – in test [2] turned out to be 1.2 nM.

B2: AB221 (antibody, V domains shown)
VH: EVQLVESGGGLVQPGNSLTLSCVASGFTFSNYGMHWIRQAPKKGLEWIAMIYYDSSKMNYADTVKGRFTISRDNSKNTLYLEMNSLRSEDTAMYYCAVPTSHYVVDVWGQGVSVTVSS
VL: DIQMTQSPASLSASLEEIVTITCQASQDIGNWLAWYQQKPGKSPQLLIYGATSLADGVPSRFSGSRSGTQFSLKISRVQVEDIGIYYCLQAYNTPWTFGGGTKLELKR
notes: the assays detect/capture with anti-human IgG reagents; constant regions not assigned; also called TfR(AB221); anti-mouse TfR(AB221) antibody
In the case of B2, in test [3], the affinity, expressed as Kd, was 5 nM; the koff (commonly the rate constant with which the complex falls apart) is 0.000181 s⁻¹; the kon (as a rule, a measure of how fast the partners come together) amounted to 39400 M⁻¹ s⁻¹. The EC50 in test [4] is 0.1 nM. The EC50 in test [1] is 0.1 nM. In test [5], this molecule yielded a concentration for a half-maximal effect (EC50) of 0.12 nM.

B3: DVD2668 (bispecific antibody)
VH: EVQLVESGGGLVQPGNSLTLSCVASGFTFSNYGMHWIRQAPKKGLEWIAMIYYDSSKMNYADTVKGRFTISRDNSKNTLYLEMNSLRSEDTAMYYCAVPTSHYVVDVWGQGVSVTVSSASTKGPSVFPLAPEVQLLESGGGLVQPGGSLRLSCAASGFTFSNYGMSWVRQAPGKGLEWVASIRSGGGRTYYSDNVKGRFTISRDNSKNTLYLQMNSLRAEDTAVYYCVRYDHYSGSSDYWGQGTLVTVSS
VL: DIQMTQSPASLSASLEEIVTITCQASQDIGNWLAWYQQKPGKSPQLLIYGATSLADGVPSRFSGSRSGTQFSLKISRVQVEDIGIYYCLQAYNTPWTFGGGTKLELKRTVAAPDVVMTQSPLSLPVTPGEPASISCKSSQSLLDSDGKTYLNWLLQKPGQSPQRLIYLVSKLDSGVPDRFSGSGSGTDFTLKISRVEAEDVGVYYCWQGTHFPRTFGQGTKVEIKR
notes: DVD-Ig, outer AB221 (TfR), inner AB043 (APP/Abeta), HG-long/LK-short; dual variable regions only; constant regions not assigned; also called TfRLSAbeta DVD2668
Take B3: the EC50 in test [1] came to 0.1 nM. The IC50 in test [2] is 0.1 nM.

B4: AB403 (antibody, V domains shown)
VH: EVQLVESGGGLVQPGGSLRLSCAASGFTFSNYGMHWIRQAPGKGLEWIAMIYYDSSKMNYADTVKGRFTISRDNAKNSLYLQMNSLRAEDTAVYYCAVPTSHYVVDVWGQGTTVTVSS
VL: EIVMTQSPATLSVSPGERATLSCQASQDIGNWLAWYQQKPGQSPRLLIYGATSLADGVPARFSGSRSGTEFTLTISSLQSEDFAVYYCLQAYNTPWTFGGGTKVEIKR
notes: humanized variant of AB221; constant regions not assigned; also called TfR(AB403)
As to B4, in test [6], binding was characterised by a dissociation constant (Kd) of 3.8 nM, the koff was 8.39e-05 s⁻¹ and the on-rate (kon) was 22000 M⁻¹ s⁻¹. The same molecule gave an EC50 in test [1] of 0.09 nM. Moreover, the EC50 in test [5] turned out to be 0.09 nM.

B5: AB405 (antibody, V domains shown)
VH: QVQLVQSGAEVKKPGASVKVSCKASGFTFSNYGMHWIRQAPGQGLEWIAMIYYDSSKMNYADTVKGRFTITRDNSTNTLYMELSSLRSEDTAVYYCAVPTSHYVVDVWGQGTTVTVSS
VL: B4 VL
notes: constant regions not assigned; also called TfR(AB405)
Turning to B5, the binding result in test [6] is “no binding (tested: antigen 10-200 nM)”. Further, the EC50 in test [4], in test [1] and in test [5] was 13.6 nM in each case.

B6: AB402 (antibody, V domains shown)
VH: B4 VH
VL: AIQMTQSPSSLSASVGDRVTITCQASQDIGNWLAWYQQKPGKSPKLLIYGATSLADGVPSRFSGSRSGTDFTLTISSLQPEDFATYYCLQAYNTPWTFGGGTKVEIKR
notes: humanized variant of AB221; also called TfR(AB402)
Turning to B6, in test [6], the Kd (commonly the equilibrium constant for the complex coming apart) worked out at 3.7 nM, the koff was found to be 6.12e-05 s⁻¹ and the kon came to 16400 M⁻¹ s⁻¹. Also, a half-maximal effect in test [1] (EC50) was put at 0.06 nM. Besides, the response in test [5] was half-maximal at 0.06 nM (EC50).
